System: Escherichia coli TOP10
Assay: shrunken log2 fold change of peptide-encoding DNA abundance (4.5 h post-induction vs induction); higher = less antimicrobial activity (less host growth inhibition)
Settings: time post-induction: 4.5 h; library: site-saturation at positions 5, 18, 19, 20
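Further: peptides expressed intracellularly from a pBAD plasmid library in pooled LB shake-flask culture, induced with 0.3% L-arabinose, DNA abundance read by NGS, three biological replicates, DESeq2 with apeglm shrinkage.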

RRIRYRPPRLPRPRPRPLEIPRP
shrunken log2 fold change: -0.00674

RRIRYRPPRLPRPRPRPLFEPRP
shrunken log2 fold change: -0.414

RRIRYRPPRLPRPRPRPLGAPRP
shrunken log2 fold change: -0.103

RRIRYRPPRLPRPRPRPLHVPRP
shrunken log2 fold change: -0.21

RRIRYRPPRLPRPRPRPLIFPRP
shrunken log2 fold change: -1.08

RRIRYRPPRLPRPRPRPLIRPRP
shrunken log2 fold change: -0.85

RRIRYRPPRLPRPRPRPLKDPRP
shrunken log2 fold change: -0.00674

RRIRYRPPRLPRPRPRPLNTPRP
shrunken log2 fold change: -0.234

RRIRYRPPRLPRPRPRPLQYPRP
shrunken log2 fold change: -0.624

RRIRYRPPRLPRPRPRPLSFPRP
shrunken log2 fold change: -1.04

RRIRYRPPRLPRPRPRPLTHPRP
shrunken log2 fold change: -0.845

RRIRYRPPRLPRPRPRPLTSPRP
shrunken log2 fold change: -0.853

RRIRYRPPRLPRPRPRPLWHPRP
shrunken log2 fold change: -0.48

RRIRYRPPRLPRPRPRPMAIPRP
shrunken log2 fold change: -0.0433

RRIRYRPPRLPRPRPRPMENPRP
shrunken log2 fold change: -0.207

RRIRYRPPRLPRPRPRPMFGPRP
shrunken log2 fold change: -0.143

RRIRYRPPRLPRPRPRPMKAPRP
shrunken log2 fold change: -0.000687

RRIRYRPPRLPRPRPRPMKRPRP
shrunken log2 fold change: -0.0321

RRIRYRPPRLPRPRPRPMLHPRP
shrunken log2 fold change: -0.404

RRIRYRPPRLPRPRPRPMPEPRP
shrunken log2 fold change: 0.0501

RRIRYRPPRLPRPRPRPMPRPRP
shrunken log2 fold change: 0.0558

RRIRYRPPRLPRPRPRPMPWPRP
shrunken log2 fold change: -0.0575

RRIRYRPPRLPRPRPRPMQGPRP
shrunken log2 fold change: -0.0463

RRIRYRPPRLPRPRPRPMQWPRP
shrunken log2 fold change: -0.00277

RRIRYRPPRLPRPRPRPMSEPRP
shrunken log2 fold change: 0.0461

RRIRYRPPRLPRPRPRPMSIPRP
shrunken log2 fold change: -0.563

RRIRYRPPRLPRPRPRPMSYPRP
shrunken log2 fold change: -0.0389

RRIRYRPPRLPRPRPRPMVQPRP
shrunken log2 fold change: 0.0303

RRIRYRPPRLPRPRPRPMWIPRP
shrunken log2 fold change: -0.526

RRIRYRPPRLPRPRPRPMYHPRP
shrunken log2 fold change: -0.707

RRIRYRPPRLPRPRPRPNAFPRP
shrunken log2 fold change: -0.158

RRIRYRPPRLPRPRPRPNCNPRP
shrunken log2 fold change: -0.962

RRIRYRPPRLPRPRPRPNDCPRP
shrunken log2 fold change: -1.04

RRIRYRPPRLPRPRPRPNDDPRP
shrunken log2 fold change: -0.0641

RRIRYRPPRLPRPRPRPNDEPRP
shrunken log2 fold change: -0.034

RRIRYRPPRLPRPRPRPNDWPRP
shrunken log2 fold change: -0.116

RRIRYRPPRLPRPRPRPNGIPRP
shrunken log2 fold change: -0.02

RRIRYRPPRLPRPRPRPNHCPRP
shrunken log2 fold change: 0.00938

RRIRYRPPRLPRPRPRPNHDPRP
shrunken log2 fold change: -0.433

RRIRYRPPRLPRPRPRPNHKPRP
shrunken log2 fold change: -1.3

RRIRYRPPRLPRPRPRPNHLPRP
shrunken log2 fold change: -1.32

RRIRYRPPRLPRPRPRPNIFPRP
shrunken log2 fold change: -0.42

RRIRYRPPRLPRPRPRPNINPRP
shrunken log2 fold change: -1.37

RRIRYRPPRLPRPRPRPNKFPRP
shrunken log2 fold change: -0.546

RRIRYRPPRLPRPRPRPNKKPRP
shrunken log2 fold change: -0.298

RRIRYRPPRLPRPRPRPNKYPRP
shrunken log2 fold change: -0.908

RRIRYRPPRLPRPRPRPNLWPRP
shrunken log2 fold change: 0.00221

RRIRYRPPRLPRPRPRPNMKPRP
shrunken log2 fold change: -0.815

RRIRYRPPRLPRPRPRPNMTPRP
shrunken log2 fold change: -0.00766

RRIRYRPPRLPRPRPRPNPAPRP
shrunken log2 fold change: 0.0854

RRIRYRPPRLPRPRPRPNPWPRP
shrunken log2 fold change: -0.189

RRIRYRPPRLPRPRPRPNQHPRP
shrunken log2 fold change: -1.18

RRIRYRPPRLPRPRPRPNRHPRP
shrunken log2 fold change: -0.614

RRIRYRPPRLPRPRPRPNSLPRP
shrunken log2 fold change: -1.11

RRIRYRPPRLPRPRPRPNSSPRP
shrunken log2 fold change: 0.0291

RRIRYRPPRLPRPRPRPNVPPRP
shrunken log2 fold change: -3.01

RRIRYRPPRLPRPRPRPNYKPRP
shrunken log2 fold change: -1.01

RRIRYRPPRLPRPRPRPNYRPRP
shrunken log2 fold change: -0.306

RRIRYRPPRLPRPRPRPNYSPRP
shrunken log2 fold change: -1.39

RRIRYRPPRLPRPRPRPPAMPRP
shrunken log2 fold change: -0.35

RRIRYRPPRLPRPRPRPPCEPRP
shrunken log2 fold change: -0.468

RRIRYRPPRLPRPRPRPPCRPRP
shrunken log2 fold change: -0.211

RRIRYRPPRLPRPRPRPPDEPRP
shrunken log2 fold change: 0.0398

RRIRYRPPRLPRPRPRPPEAPRP
shrunken log2 fold change: 0.0456

RRIRYRPPRLPRPRPRPPECPRP
shrunken log2 fold change: 0.0463

RRIRYRPPRLPRPRPRPPFAPRP
shrunken log2 fold change: 0.0915

RRIRYRPPRLPRPRPRPPHAPRP
shrunken log2 fold change: -0.0606

RRIRYRPPRLPRPRPRPPHPPRP
shrunken log2 fold change: -0.187

RRIRYRPPRLPRPRPRPPHSPRP
shrunken log2 fold change: -0.699

RRIRYRPPRLPRPRPRPPHWPRP
shrunken log2 fold change: 0.203

RRIRYRPPRLPRPRPRPPIFPRP
shrunken log2 fold change: -0.381

RRIRYRPPRLPRPRPRPPKNPRP
shrunken log2 fold change: -0.164

RRIRYRPPRLPRPRPRPPKTPRP
shrunken log2 fold change: -0.38

RRIRYRPPRLPRPRPRPPLHPRP
shrunken log2 fold change: -0.455

RRIRYRPPRLPRPRPRPPLKPRP
shrunken log2 fold change: -0.192

RRIRYRPPRLPRPRPRPPLNPRP
shrunken log2 fold change: -0.228

RRIRYRPPRLPRPRPRPPLWPRP
shrunken log2 fold change: 0.277

RRIRYRPPRLPRPRPRPPMWPRP
shrunken log2 fold change: 0.53

RRIRYRPPRLPRPRPRPPQDPRP
shrunken log2 fold change: -0.362

RRIRYRPPRLPRPRPRPPSHPRP
shrunken log2 fold change: -0.383

RRIRYRPPRLPRPRPRPPSRPRP
shrunken log2 fold change: 0.232

RRIRYRPPRLPRPRPRPPVFPRP
shrunken log2 fold change: 0.0494

RRIRYRPPRLPRPRPRPPVPPRP
shrunken log2 fold change: 0.486

RRIRYRPPRLPRPRPRPPVQPRP
shrunken log2 fold change: -0.0548

RRIRYRPPRLPRPRPRPPWEPRP
shrunken log2 fold change: -0.381

RRIRYRPPRLPRPRPRPPWMPRP
shrunken log2 fold change: -0.0946

RRIRYRPPRLPRPRPRPPWQPRP
shrunken log2 fold change: -0.121

RRIRYRPPRLPRPRPRPQACPRP
shrunken log2 fold change: 0.00187

RRIRYRPPRLPRPRPRPQCLPRP
shrunken log2 fold change: 0.0613

RRIRYRPPRLPRPRPRPQEQPRP
shrunken log2 fold change: -0.0134

RRIRYRPPRLPRPRPRPQFDPRP
shrunken log2 fold change: -0.0286

RRIRYRPPRLPRPRPRPQFHPRP
shrunken log2 fold change: -1.09

RRIRYRPPRLPRPRPRPQGYPRP
shrunken log2 fold change: -0.516

RRIRYRPPRLPRPRPRPQINPRP
shrunken log2 fold change: -0.669

RRIRYRPPRLPRPRPRPQKLPRP
shrunken log2 fold change: -0.418

RRIRYRPPRLPRPRPRPQKSPRP
shrunken log2 fold change: -0.208

RRIRYRPPRLPRPRPRPQLHPRP
shrunken log2 fold change: -0.395

RRIRYRPPRLPRPRPRPQLMPRP
shrunken log2 fold change: -0.509

RRIRYRPPRLPRPRPRPQMLPRP
shrunken log2 fold change: -0.846

RRIRYRPPRLPRPRPRPQNNPRP
shrunken log2 fold change: -0.86

RRIRYRPPRLPRPRPRPQNSPRP
shrunken log2 fold change: -0.00968

RRIRYRPPRLPRPRPRPQPHPRP
shrunken log2 fold change: -0.348

RRIRYRPPRLPRPRPRPQQHPRP
shrunken log2 fold change: -0.278

RRIRYRPPRLPRPRPRPQRAPRP
shrunken log2 fold change: -0.374

RRIRYRPPRLPRPRPRPQRFPRP
shrunken log2 fold change: -0.0259

RRIRYRPPRLPRPRPRPQRKPRP
shrunken log2 fold change: -0.263

RRIRYRPPRLPRPRPRPQTGPRP
shrunken log2 fold change: -0.288

RRIRYRPPRLPRPRPRPQTIPRP
shrunken log2 fold change: -0.0196

RRIRYRPPRLPRPRPRPQTNPRP
shrunken log2 fold change: -0.711

RRIRYRPPRLPRPRPRPQTRPRP
shrunken log2 fold change: -0.322

RRIRYRPPRLPRPRPRPQTSPRP
shrunken log2 fold change: -1.22

RRIRYRPPRLPRPRPRPQVSPRP
shrunken log2 fold change: -0.849

RRIRYRPPRLPRPRPRPQYAPRP
shrunken log2 fold change: -0.262

RRIRYRPPRLPRPRPRPRASPRP
shrunken log2 fold change: -0.412

RRIRYRPPRLPRPRPRPRAVPRP
shrunken log2 fold change: 0.0585

RRIRYRPPRLPRPRPRPREHPRP
shrunken log2 fold change: -0.00116

RRIRYRPPRLPRPRPRPRELPRP
shrunken log2 fold change: -0.0942

RRIRYRPPRLPRPRPRPRENPRP
shrunken log2 fold change: 0.0246

RRIRYRPPRLPRPRPRPRFCPRP
shrunken log2 fold change: -0.17

RRIRYRPPRLPRPRPRPRFIPRP
shrunken log2 fold change: -0.671

RRIRYRPPRLPRPRPRPRFSPRP
shrunken log2 fold change: -0.144

RRIRYRPPRLPRPRPRPRGGPRP
shrunken log2 fold change: 0.139

RRIRYRPPRLPRPRPRPRLEPRP
shrunken log2 fold change: -0.0441

RRIRYRPPRLPRPRPRPRLWPRP
shrunken log2 fold change: 0.14

RRIRYRPPRLPRPRPRPRNHPRP
shrunken log2 fold change: -0.336

RRIRYRPPRLPRPRPRPRNPPRP
shrunken log2 fold change: 0.0734

RRIRYRPPRLPRPRPRPRPDPRP
shrunken log2 fold change: -0.0672

RRIRYRPPRLPRPRPRPRPLPRP
shrunken log2 fold change: -0.3

RRIRYRPPRLPRPRPRPRPMPRP
shrunken log2 fold change: -0.227

RRIRYRPPRLPRPRPRPRPYPRP
shrunken log2 fold change: -0.259

RRIRYRPPRLPRPRPRPRQAPRP
shrunken log2 fold change: 0.0877

RRIRYRPPRLPRPRPRPRQKPRP
shrunken log2 fold change: 0.114

RRIRYRPPRLPRPRPRPRQTPRP
shrunken log2 fold change: -0.0574

RRIRYRPPRLPRPRPRPRRKPRP
shrunken log2 fold change: 0.0824

RRIRYRPPRLPRPRPRPRTIPRP
shrunken log2 fold change: -0.228

RRIRYRPPRLPRPRPRPRTLPRP
shrunken log2 fold change: -0.537

RRIRYRPPRLPRPRPRPRTQPRP
shrunken log2 fold change: 0.0444

RRIRYRPPRLPRPRPRPRTRPRP
shrunken log2 fold change: -0.0272

RRIRYRPPRLPRPRPRPRTSPRP
shrunken log2 fold change: -0.169

RRIRYRPPRLPRPRPRPRTYPRP
shrunken log2 fold change: -0.71

RRIRYRPPRLPRPRPRPRVCPRP
shrunken log2 fold change: 0.0157

RRIRYRPPRLPRPRPRPRVPPRP
shrunken log2 fold change: -0.0432

RRIRYRPPRLPRPRPRPRVYPRP
shrunken log2 fold change: -0.847

RRIRYRPPRLPRPRPRPSACPRP
shrunken log2 fold change: -0.301

RRIRYRPPRLPRPRPRPSAEPRP
shrunken log2 fold change: -0.0651

RRIRYRPPRLPRPRPRPSDQPRP
shrunken log2 fold change: -0.235

RRIRYRPPRLPRPRPRPSDRPRP
shrunken log2 fold change: -0.307

RRIRYRPPRLPRPRPRPSEAPRP
shrunken log2 fold change: -0.096

RRIRYRPPRLPRPRPRPSGNPRP
shrunken log2 fold change: -0.067

RRIRYRPPRLPRPRPRPSIEPRP
shrunken log2 fold change: -1.02

Source: the supplement of paper PMC9112550, “Optimization of the antimicrobial peptide Bac7 by deep mutational scanning” (BMC Biology, 2022)
